Positions of bridges follow the written chain, without caps; N, C: chain ends.
Target: T1, CXCR4 receptor (Homo sapiens, UniProt P61073)
T1 construct: incubation of THP-1 cells with SDF-1; endogenous in cells; host or cells: THP-1 cells
Test: [Ca2+]i mobilization in fura-2,AM loaded THP-1 cells (FIG. 5, Table 6)
Format: cell-based
Details: 1×10^6/ml
Protocol: Fura-2,AM loaded THP-1 cells (1×10^6/ml) were stimulated with SDF-1, Compound A or Compound K at the concentrations indicated. The values represent the mean ± one S.D. of n=3 experiments.
Fura-2,AM loaded THP-1 cells (1×10^6/ml) were stimulated with native SDF-1 and the SDF-1 peptide analogs at the concentration of native SDF-1 concentration that gave the maximum [Ca^2+]1 stimulation (1 μM). The values represent the mean ± one S.D. of n=3 experiments.
This example illustrates the efficacy of SDF-1 and SDF-1 peptide analogs in mediating intracellular calcium mobilization ([Ca^2+]i). To illustrate that the binding of SDF-1 and SDF-1 peptide analogs results in the agonistic induction of the CXCR4 receptor, [Ca^2+]i mobilization assays were conducted, the results of which are shown in FIG. 5. To obtain the data shown in FIG. 5, fura-2,AM loaded THP-1 cells (1×10^6/ml) were stimulated with Compound A/SDF-1, SDF-1(1-14)-(G)4-SDF-1(55-67) Lys20/Glu24-cyclic amide (SEQ ID NO:809) or Compound K/SDF-1(1-14)-(G)4-SDF-1(55-67)-Glu24/Lys28-cyclic amide (SEQ ID NO:803) at the concentrations indicated (the values represent the mean ± one S.D. of n=3 experiments). […]

T1 sequence (P61073 whole entry): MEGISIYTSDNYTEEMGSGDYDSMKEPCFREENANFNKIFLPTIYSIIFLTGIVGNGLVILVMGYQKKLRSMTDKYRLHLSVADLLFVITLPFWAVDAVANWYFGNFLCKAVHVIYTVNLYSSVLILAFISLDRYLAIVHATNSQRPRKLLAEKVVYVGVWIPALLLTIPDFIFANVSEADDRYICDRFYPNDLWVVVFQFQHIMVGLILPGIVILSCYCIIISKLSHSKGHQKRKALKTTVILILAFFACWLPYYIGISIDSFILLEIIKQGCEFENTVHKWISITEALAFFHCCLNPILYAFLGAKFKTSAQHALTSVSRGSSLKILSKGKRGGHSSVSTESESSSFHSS

H2N-Lys-Pro-Val-Ser-Leu-Ser-Tyr-Arg-Cys-Pro-Cys-Arg-Phe-Phe-[Gly-Gly-Gly-Gly]-Leu-Lys-Trp-Ile-Gln-Glu-Tyr-Leu-Glu-Lys-Ala-Leu-Asn-NH2 (H-KPVSLSYRCPCRFFGGGGLKWIQEYLEKALN-NH2; lactam 20-24; cysteine pairing not given here) [Compound A]
EC50: 148 nM

Source: US20050059584A1, “Novel chemokine mimetics synthesis and their use” (priority 2002, published 2005)
